Measurements reported in patent US20260207759A1 (SUZHOU SUNCADIA BIOPHARMACEUTICALS, published 2026).
Where a chain is given by its changes, count along the chain named. Numbers in names are those of the source. Read-outs that look alike come from different tables or passages of the source. Blank lines part the entries; values can stand above or below the binder they belong to.

Key:
[1] = target: T1, human CD40 on the cell surface (Raji cells, HEK-Blue CD40L cells, primary human B cells and DCs) (human, UniProt P25942 21-277); assay: flow cytometry (FACS) binding to Raji cells
T1 construct: whole, on cells; One entry is used for all cell-surface human CD40, endogenous or transfected; also called Raji cell surface human CD40

[2] = target: T1, human CD40 on the cell surface (Raji …); assay: flow cytometry (FACS) binding to Raji cells; remark: listed apart in the source
[3] = target: T1, human CD40 on the cell surface (Raji …); assay: cell-based or functional assay
[4] = target: T1, human CD40 on the cell surface (Raji …); assay: cell-based or functional assay; remark: listed apart in the source
[5] = target: T1, human CD40 on the cell surface (Raji …); assay: cell-based or functional assay; remark: listed apart in the source
[6] = target: human FcRn antigen (purchased from AcroBiosystem) (human, UniProt P55899 24-297; P61769 21-119); assay: SPR (Biacore), antibody captured on anti-human Fab chip, human FcRn as analyte, steady state model
[7] = target: T2, his-tagged cynomolgus monkey CD40 recombinant protein (cyno-CD40-his, Acrobiosystems Cat. #CD0-C52H6) (cynomolgus monkey); assay: SPR (Biacore), antibody captured on anti-human Fc chip, His-tagged CD40 as analyte, 1:1 model
T2 construct: Purchased reagent

[8] = target: T3, his-tagged human CD40 recombinant protein (h-CD40-his, Acrobiosystems Cat. #CD0-H5228) (human, UniProt P25942 21-193); assay: as above
T3 construct: Purchased reagent; also called His-tagged human CD40 antigen; not shown: His tag

[9] = target: T1, human CD40 on the cell surface (Raji …); assay: cell-based or functional assay; remark: listed apart in the source
[10] = target: T2, his-tagged cynomolgus monkey CD40 …; assay: SPR (Biacore), antibody captured on anti-human Fc chip, His-tagged CD40 as analyte, 1:1 model; remark: listed apart in the source
[11] = target: T3, his-tagged human CD40 recombinant …; assay: as above; remark: listed apart in the source
[12] = target: T1, human CD40 on the cell surface (Raji …); assay: cell-based or functional assay; remark: listed apart in the source

T3 sequence (P25942 21-193 limits assumed): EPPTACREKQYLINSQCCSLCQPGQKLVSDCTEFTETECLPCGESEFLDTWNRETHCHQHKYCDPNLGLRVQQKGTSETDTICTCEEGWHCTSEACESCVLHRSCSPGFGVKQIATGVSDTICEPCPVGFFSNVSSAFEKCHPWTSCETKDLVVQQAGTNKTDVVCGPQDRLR
T1 sequence (P25942 21-277): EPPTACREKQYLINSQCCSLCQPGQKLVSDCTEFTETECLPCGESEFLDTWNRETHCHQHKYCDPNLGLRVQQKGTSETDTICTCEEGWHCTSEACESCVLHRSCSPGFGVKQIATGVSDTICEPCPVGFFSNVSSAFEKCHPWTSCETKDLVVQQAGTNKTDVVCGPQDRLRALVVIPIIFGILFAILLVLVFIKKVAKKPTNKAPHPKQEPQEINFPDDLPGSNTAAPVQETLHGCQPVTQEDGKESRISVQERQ

B1: 9E6 human-rabbit chimeric anti-CD40 antibody (antibody, V domains shown)
VH: QSVRESEGGLVKPTDTLTLTCTVSGFSLSSYDMSWVRQAPGNGLEWIGAIGGAGGTYYASWAKSRSTITRNTNLNTVTLKMSSLTAADTATYFCARGWTRLDLWGQGTLVTVSS
VL: DIVLTQTPSPVSGAVGGTVTIKCQASEDISSNLAWYQQKPGQPPKLLIFPASNLASGVSSRFKGSGSGTEFTLTISDLECADAATYYCQGGYWTSTSNFGNGFGGGTEVVVK
notes: Rabbit variable regions joined to a human IgG1 constant region with N297A (Eu numbering) and a human kappa constant region
EC50 [1]: 0.895 nM | EC50 [2]: 0.608 nM | Reporter gene cell activity IC50 (SEAP, HEK-Blue CD40L cells stimulated with CD40L) [3]: 0.221 nM

B2: 9E6-L4H2 humanized anti-CD40 antibody (antibody, human IgG1, kappa, N297A)
heavy: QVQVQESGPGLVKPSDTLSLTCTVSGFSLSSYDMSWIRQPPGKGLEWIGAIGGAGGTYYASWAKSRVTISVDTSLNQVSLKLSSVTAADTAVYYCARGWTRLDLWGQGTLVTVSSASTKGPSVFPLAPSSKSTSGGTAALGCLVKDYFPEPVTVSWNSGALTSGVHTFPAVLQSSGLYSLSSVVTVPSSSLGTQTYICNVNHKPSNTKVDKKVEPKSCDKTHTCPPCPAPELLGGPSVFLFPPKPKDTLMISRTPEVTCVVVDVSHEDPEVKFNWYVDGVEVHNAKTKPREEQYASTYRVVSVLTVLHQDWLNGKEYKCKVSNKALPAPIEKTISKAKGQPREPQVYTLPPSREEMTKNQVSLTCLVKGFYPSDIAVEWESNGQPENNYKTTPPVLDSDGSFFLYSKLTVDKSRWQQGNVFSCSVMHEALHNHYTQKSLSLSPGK
light: DIQLTQSPSFLSASVGDRVTITCQASEDISSNLAWYQQKPGKPPKLLIFPASNLASGVPSRFSGSGSGTEFTLTISSLQPEDFATYYCQGGYWTSTSNFGQGFGGGTKVEIKRTVAAPSVFIFPPSDEQLKSGTASVVCLLNNFYPREAKVQWKVDNALQSGNSQESVTEQDSKDSTYSLSSTLTLSKADYEKHKVYACEVTHQGLSSPVTKSFNRGEC
notes: human IgG1 N297A (Eu) heavy chain and kappa light chain
B cell activation assay, CD19+CD69+%, Donor 1, IC50 [4]: 0.44 nM | B cell activation assay, CD19+CD69+%, Donor 2, IC50 [4]: 0.52 nM | B cell activation assay, CD19+CD69+ %, IC50 [5]: 0.14 nM | B cell activation assay, CD19+CD69+ MFI, IC50 [5]: 0.07 nM | EC50 [1]: 0.87 nM | Kd [6]: 293 nM | Kd [7]: 0.294 nM | koff [7]: 0.000138 s⁻¹ | kon [7]: 468000 M⁻¹ s⁻¹ | Kd [8]: 0.926 nM | koff [8]: 0.000377 s⁻¹ | kon [8]: 407000 M⁻¹ s⁻¹ | IC50 for the inhibition of CD40 reporter gene cell activity (Experiment 2) [9]: 0.5 nM | Kd [10]: 0.121 nM | koff [10]: 6.23e-05 s⁻¹ | kon [10]: 514000 M⁻¹ s⁻¹ | Kd [11]: 0.536 nM | koff [11]: 0.000221 s⁻¹ | kon [11]: 413000 M⁻¹ s⁻¹ | IC50 in DC cell activation assay system, CD80 MFI [12]: 3.44 nM | IC50 in DC cell activation assay system, CD86 MFI [12]: 3.72 nM | IC50 in DC cell activation assay system, IL-12/23 p40 [12]: 1.85 nM | IC50 in DC cell activation assay system, TNFα [12]: 0.7 nM

B4: 9E6-L2H1 humanized anti-CD40 antibody (antibody, human IgG1, V domains shown)
VH: EVQLQESGPGLVKPSDTLSLTCTVSGFSLSSYDMSWIRQPPGKGLEWIGAIGGAGGTYYASWAKSRVTISVDTSLNQVSLKLSSVTAADTAVYYCARGWTRLDLWGQGTLVTVSS
VL: DIQLTQSPSFLSASVGDRVTITCQASEDISSNLAWYQQKPGKPPKLLIFPASNLASGVPSRFSGSGSGTEFTLTISSLQPEDFATYYCQGGYWTSTSNFGSGFGGGTKVEIK
EC50 [1]: 1.99 nM

B7: 9E6-L3H2 humanized anti-CD40 antibody (antibody, human IgG1, V domains shown)
VH: B4 VH with E1Q, L4V
VL: B4 VL with S101T
EC50 [1]: 1.15 nM

B8: 9E6-L2H2 humanized anti-CD40 antibody (antibody, human IgG1, V domains shown)
VH: B4 VH with E1Q, L4V
VL: B4 VL
EC50 [1]: 1.66 nM

More lines, now with the values ahead:

Kd [6]: 39.8 nM
B3: 9E6-L4H2-AAYTE anti-CD40 antibody (IgG1 with L234A, L235A, M252Y, S254T, T256E) (antibody)
heavy: QVQVQESGPGLVKPSDTLSLTCTVSGFSLSSYDMSWIRQPPGKGLEWIGAIGGAGGTYYASWAKSRVTISVDTSLNQVSLKLSSVTAADTAVYYCARGWTRLDLWGQGTLVTVSSASTKGPSVFPLAPSSKSTSGGTAALGCLVKDYFPEPVTVSWNSGALTSGVHTFPAVLQSSGLYSLSSVVTVPSSSLGTQTYICNVNHKPSNTKVDKKVEPKSCDKTHTCPPCPAPEAAGGPSVFLFPPKPKDTLYITREPEVTCVVVDVSHEDPEVKFNWYVDGVEVHNAKTKPREEQYNSTYRVVSVLTVLHQDWLNGKEYKCKVSNKALPAPIEKTISKAKGQPREPQVYTLPPSREEMTKNQVSLTCLVKGFYPSDIAVEWESNGQPENNYKTTPPVLDSDGSFFLYSKLTVDKSRWQQGNVFSCSVMHEALHNHYTQKSLSLSPGK
light: B2 light

EC50 [1]: 1.08 nM
B5: 9E6-L1H1 humanized anti-CD40 antibody (antibody, human IgG1, V domains shown)
VH: B4 VH
VL: B4 VL with S101N, G102V

EC50 [1]: 0.928 nM
B6: 9E6-L4H1 humanized anti-CD40 antibody (antibody, human IgG1, V domains shown)
VH: B4 VH
VL: B4 VL with S101Q

EC50 [1]: 1.06 nM
B9: 9E6-L3H1 humanized anti-CD40 antibody (antibody, human IgG1, V domains shown)
VH: B4 VH
VL: B4 VL with S101T

EC50 [1]: 1.05 nM
B10: 9E6-L1H2 humanized anti-CD40 antibody (antibody, human IgG1, V domains shown)
VH: B4 VH with E1Q, L4V
VL: B4 VL with S101N, G102V
